Test results published in the supplement of paper PMC10567573.

B1: SLC19A2 (parent)
chain: FASLRPSEPFLTPYLLGPDKNLTE

Variants of: B1
Assay: protein stability index of a GFP-peptide fusion (GPS, HEK-293T) (PSI 1-6); higher = more stable
Conditions: c terminus: a fixed tail appended
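Further: lentivirally expressed fusions sorted by FACS into six bins by GFP to DsRed ratio, PSI derived from sequencing read proportions per bin multiplied by bin number.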

Protein stability index: each site, then its substitutions
T12: P 1.89 | D 1.97 | E 3.47 | S 1.93 | I 2 | F 1.74 | V 1.28 | L 1.67 | K 1.88
Y14: N 3.22 | C 2.27 | R 2.87 | I 2.66 | V 2.22 | D 2.49
F1: E 4.2 | T 3.44 | R 3.75 | H 3.58 | L 2.93 | V 3.4 | N 3.81
G17: W 2.1 | F 2.15 | T 1.96 | E 1.86 | N 2.06 | C 1.05
D19: R 2.25 | T 1.9 | W 3.08 | M 2.1 | V 2.16 | K 1.58 | E 2.24 | S 2.5 | Y 2.89
P9: T 2.48 | A 2.27 | C 2.26 | M 2.37 | L 2.5
L11: Q 2.09 | F 2.63 | I 1.58 | V 1.61 | C 1.86 | D 2.29 | P 2.03 | W 3.29
L4: G 2.93 | D 2.76 | P 2.98 | K 1.48 | I 2.44 | M 1.48 | C 1.61 | E 2.65
L22: Y 1.84 | T 2.25 | C 1.96 | S 2.1 | M 1.59 | V 1.52
E24: H 1.93 | G 2.15 | T 1.8 | Q 2.06 | P 2.41 | K 1.96 | N 1.38 | F 2.45 | L 1.27 | C 2.46
A2: L 2.04 | E 3.63 | D 3.64 | M 2.36 | T 1.97 | Q 1.72 | G 2.74 | R 3.08 | F 2.19 | N 3.64
L15: K 1.84 | C 2.23 | W 1.44 | N 2.3 | V 1.86 | I 1.99 | F 1.67 | E 2.03
P13: E 1.95 | K 2.56 | I 2.91 | C 1.84 | Y 1.58
P18: Y 1.61 | T 1.4 | R 1.55 | Q 2 | G 1.51 | V 1.41 | C 1.98 | L 1.8
R5: L 2.1 | F 2.32 | P 2.36 | K 1.88
S7: T 1.75 | A 1.68 | G 2.07 | R 1.71 | E 1.82 | D 1.92
S3: Q 2.61 | E 1.45 | I 1.69
K20: C 1.18 | Y 1.28 | R 1.94 | D 2.1 | N 2.13 | V 1.84
T23: M 1.52 | E 2.02 | I 1.58 | N 1.84 | C 2.12 | K 2.09 | G 1.86 | P 2.31 | D 1.97 | A 2.24
N21: K 1.6 | S 1.47 | P 1.31 | R 1.95 | Y 2.42 | A 1.51 | Q 1.88 | L 1.87
F10: Q 2.44 | Y 2.04 | W 2.88 | M 2.35 | V 2.67 | N 3.22
E8: P 2.12 | R 1.59 | Y 1.72 | G 1.99 | A 1.49 | H 1.66 | W 2.48 | I 2.19 | Q 1.69
P6: F 1.58 | N 1.76 | E 1.65 | I 3.26 | C 1.99 | Q 2.16 | Y 1.83
L16: I 1.51 | W 2.14 | E 2.21
